Reference: PMC6695498, “Arkadia/RNF111 is a SUMO-targeted ubiquitin ligase with preference for substrates marked with SUMO1-capped SUMO2/3 chain” (Nature Communications, 2019)
Values joined by “and” are separate entries in the source; they are usually repeats but may differ in a detail not shown here. Identical values can stand only once.

Biological target: T1, Arkadia SUMO-binding domain (residues 285-416), wild type (mouse, UniProt Q99ML9 285-416)
T1 construct: it holds SIM1, SOB and SIM2; Subcloned into pGEX-TEV/N (TEV site after the thrombin site); also called Arkadia-WT 285-416; SIM domain of Arkadia
T1 sequence (looked up): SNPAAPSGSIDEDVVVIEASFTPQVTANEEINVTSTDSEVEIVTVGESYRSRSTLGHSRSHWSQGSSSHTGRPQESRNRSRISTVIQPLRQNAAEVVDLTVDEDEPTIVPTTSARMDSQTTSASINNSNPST
Test: ITC; iTC200; ITC buffer (50 mM Tris/HCl pH 7.5, 150 mM NaCl, 2 mM DTT, 5% glycerol), 30 °C; 20-30 injections up to a twofold to threefold molar excess; which partner was in the syringe is not told; single titrations and their mean
Conditions: both partners purified

B1: linear SUMO1-capped SUMO2 trimer (SUMO1-ΔN15 - 2xSUMO2-ΔN11) (other)
chain: KKEGEYIKLKVIGQDSSEIHFKVKMTTHLKKLKESYCQRQGVPMNSLRFLFEGQRIADNHTPKELGMEEEDVIEVYQEQTRSTENNDHINLKVAGQDGSVVQFKIKRHTPLSKLMKAYCERQGLSMRQIRFRFDGQPINETDTPAQLEMEDEDTIDVFQQQTRSTENNDHINLKVAGQDGSVVQFKIKRHTPLSKLMKAYCERQGLSMRQIRFRFDGQPINETDTPAQLEMEDEDTIDVFQQQTGG
Kd: 3500 nM and 2100 nM and 2300 nM and 1500 nM

B2: linear SUMO1-capped SUMO2 dimer (SUMO1-ΔN15 - SUMO2-ΔN11) (other)
chain: KKEGEYIKLKVIGQDSSEIHFKVKMTTHLKKLKESYCQRQGVPMNSLRFLFEGQRIADNHTPKELGMEEEDVIEVYQEQTRSTENNDHINLKVAGQDGSVVQFKIKRHTPLSKLMKAYCERQGLSMRQIRFRFDGQPINETDTPAQLEMEDEDTIDVFQQQTGG
Kd: 1400 nM and 3800 nM and 2100 nM
